Starred links: 1 amine or outer side, 2 acyl side, 3 side chain; linkers in the order of their positions; H or OH if unused. Positions of bridges follow the written chain, without caps; N, C: chain ends. Non-standard residues stand in square brackets, D forms with d. Primed or numbered codes have the meaning given here. PyrS2″ = (S)-3-amino-1-((pent-4-en-1-yloxy)carbonyl)pyrrolidine-3-carboxylic acid (stapling residue), C=CCCCOC(=O)N1CC[C@@](N[*:1])(C(=O)[*:2])C1; B5(4) = 2,2-bis(4-pentenyl)glycine = 2-amino-2-(pent-4-en-1-yl)hept-6-enoic acid (stitching residue), C=CCCCC(CCCC=C)(N[*:1])C(=O)[*:2]; B5(5) = 2,2-bis(4-pentenyl)glycine, 2-amino-2-(pent-4-en-1-yl)hept-6-enoic acid (stitching residue), C=CCCCC(CCCC=C)(N[*:1])C(=O)[*:2]; TfeGA = (S)-2-amino-3-((carboxymethyl)(2,2,2-trifluoroethyl)amino)propanoic acid, O=C([C@H](CN(CC(=O)[*:3])CC(F)(F)F)N[*:1])[*:2]; (Pip)GlnR = (S)-2-amino-5-oxo-5-(piperidin-1-yl)pentanoic acid, O=C(CC[C@H](N[*:1])C(=O)[*:2])N1CCCCC1; B5(3) = 2,2-bis(4-pentenyl)glycine (stitching residue), C=CCCCC(CCCC=C)(N[*:1])C(=O)[*:2]; Phe(3-COOH) = N[C@@H](Cc1cccc(C(=O)O)c1)C(=O)O; Phe(2-CF3) = N[C@@H](Cc1ccccc1C(F)(F)F)C(=O)O; Bta = N[C@@H](Cc1csc2ccccc12)C(=O)O; Lys(iPr) = CC(C)NCCCC[C@H](N)C(=O)O; αAllylPro = C=CC[C@@]1(C(=O)O)CCCN1; tBuAla = CC(C)(C)C[C@H](N)C(=O)O; 3Thi = N[C@@H](Cc1ccsc1)C(=O)O; Abu = CC[C@H](N)C(=O)O; Aib = CC(C)(N)C(=O)O
target: full-length beta-Catenin (Uniprot ID P35222) (Homo sapiens (Human)) (UniProt P35222); assay: fluorescence polarization competition; full-length beta-catenin, 5FAM-TCF4(10-53) probe as competitor
Target sequence in this assay (P35222 2-781 limits assumed): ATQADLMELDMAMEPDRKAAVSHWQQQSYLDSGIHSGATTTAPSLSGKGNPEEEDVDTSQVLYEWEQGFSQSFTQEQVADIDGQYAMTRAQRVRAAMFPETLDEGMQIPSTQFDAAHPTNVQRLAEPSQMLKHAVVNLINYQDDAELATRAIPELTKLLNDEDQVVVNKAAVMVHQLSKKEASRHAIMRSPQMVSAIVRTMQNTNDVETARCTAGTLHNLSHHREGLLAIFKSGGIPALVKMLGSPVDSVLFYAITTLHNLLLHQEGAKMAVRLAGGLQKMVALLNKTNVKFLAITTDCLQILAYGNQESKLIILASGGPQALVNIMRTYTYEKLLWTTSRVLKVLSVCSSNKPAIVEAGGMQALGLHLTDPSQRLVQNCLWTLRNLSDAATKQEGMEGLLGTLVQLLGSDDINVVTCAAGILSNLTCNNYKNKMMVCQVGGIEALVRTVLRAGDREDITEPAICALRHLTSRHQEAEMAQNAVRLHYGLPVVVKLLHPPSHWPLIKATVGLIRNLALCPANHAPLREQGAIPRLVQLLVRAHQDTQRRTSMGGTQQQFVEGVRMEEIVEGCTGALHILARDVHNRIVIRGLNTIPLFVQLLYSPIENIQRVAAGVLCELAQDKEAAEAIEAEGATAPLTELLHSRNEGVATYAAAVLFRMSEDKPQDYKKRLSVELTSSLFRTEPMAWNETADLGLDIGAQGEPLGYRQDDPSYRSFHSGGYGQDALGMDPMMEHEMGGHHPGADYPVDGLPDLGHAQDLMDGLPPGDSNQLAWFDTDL

| Binder | IC50 |
| --- | --- |
| Ac-[αAllylPro]D[tBuAla][B5(5)]D[Phe(3-COOH)][Aib]AF[Abu][PyrS2″][3Thi][Bta][(Pip)GlnR]A-NH2 (staple 1-4, 4-11) [Ac-PL3-Asp-Npg-B5-Asp-3COOHF-Aib-Ala-Phe-Abu-PyrS2-3Thi-BztA-[Pip]GlnR-Ala-NH2] | 7 nM |
| Ac-[αAllylPro]D[tBuAla][B5(3)]D[TfeGA]AAFL[PyrS2″][3Thi][Bta][Me2Gln]A-NH2 (staple 1-4, 4-11) [Ac-PL3-Asp-Npg-B5-Asp-TfeGA-Ala-Ala-Phe-Leu-PyrS2-3Thi-BztA-Me2Gln-Ala-NH2] | 10 nM |
| Ac-[αAllylPro]D[tBuAla][B5(5)]D[Phe(3-COOH)]AAFL[PyrS2″][Phe(2-CF3)][Bta][(NHEt)GlnR]A-NH2 (staple 1-4, 4-11) [Ac-PL3-Asp-Npg-B5-Asp-3COOHF-Ala-Ala-Phe-Leu-PyrS2-2F3MeF-BztA-[NHEt]GlnR-Ala-NH2] | 24 nM |
| Ac-[αAllylPro]D[tBuAla][B5(5)]NT[Aib]AFN[PyrS2″][3Thi][Bta]W-NH2 (staple 1-4, 4-11) [Ac-PL3-Asp-Npg-B5-Asn-Thr-Aib-Ala-Phe-Asn-PyrS2-3Thi-BztA-Trp-NH2] | 754 nM |
| Ac-[αAllylPro]D[tBuAla][B5(3)]NT[Aib]AFN[PyrS2″][3Thi][Bta]K-NH2 (staple 1-4, 4-11) [Ac-PL3-Asp-Npg-B5-Asn-Thr-Aib-Ala-Phe-Asn-PyrS2-3Thi-BztA-Lys-NH2] | 165 nM |
| Ac-[αAllylPro]D[tBuAla][B5(3)]D[TfeGA]AAFL[PyrS2″][3Thi][Bta][(NHEt)GlnR]A-NH2 (staple 1-4, 4-11) [Ac-PL3-Asp-Npg-B5-Asp-TfeGA-Ala-Ala-Phe-Leu-PyrS2-3Thi-BztA-[NHEt]GlnR-Ala-NH2] | 14 nM |

Second part, the binder after the results:

| IC50 | Binder |
| --- | --- |
| 310 nM | Ac-[αAllylPro]D[tBuAla][B5(3)]NT[Aib]AFN[PyrS2″][3Thi][Bta]Y-NH2 (staple 1-4, 4-11) [Ac-PL3-Asp-Npg-B5-Asn-Thr-Aib-Ala-Phe-Asn-PyrS2-3Thi-BztA-Tyr-NH2] |
| 4750 nM | Ac-[αAllylPro]D[tBuAla][B5(3)]D[Phe(3-COOH)]QAFL[PyrS2″][Phe(2-CF3)][2F3MeW]A-NH2 (staple 1-4, 4-11) [Ac-PL3-Asp-Npg-B5-Asp-3COOHF-Gln-Ala-Phe-Leu-PyrS2-2F3MeF-2F3MeW-Ala-NH2] |
| 19 nM | Ac-[αAllylPro]D[tBuAla][B5(5)]D[TfeGA]AAFL[PyrS2″][3Thi][Bta][(Pip)GlnR]A-NH2 (staple 1-4, 4-11) [Ac-PL3-Asp-Npg-B5-Asp-TfeGA-Ala-Ala-Phe-Leu-PyrS2-3Thi-BztA-[Pip]GlnR-Ala-NH2] |
| 15 nM | Ac-[αAllylPro]D[tBuAla][B5(5)]D[Phe(3-COOH)]AAFL[PyrS2″][Phe(2-CF3)][Bta][Me2Gln]A-NH2 (staple 1-4, 4-11) [Ac-PL3-Asp-Npg-B5-Asp-3COOHF-Ala-Ala-Phe-Leu-PyrS2-2F3MeF-BztA-Me2Gln-Ala-NH2] |
| 7 nM | Ac-[αAllylPro]D[tBuAla][B5(3)]D[Phe(3-COOH)][Aib]AF[Abu][PyrS2″][3Thi][Bta][Me2Gln]A-NH2 (staple 1-4, 4-11) [Ac-PL3-Asp-Npg-B5-Asp-3COOHF-Aib-Ala-Phe-Abu-PyrS2-3Thi-BztA-Me2Gln-Ala-NH2] |
| 627 nM | Ac-[αAllylPro]D[tBuAla][B5(5)]NT[Aib]AFN[PyrS2″][3Thi][Bta]L-NH2 (staple 1-4, 4-11) [Ac-PL3-Asp-Npg-B5-Asn-Thr-Aib-Ala-Phe-Asn-PyrS2-3Thi-BztA-Leu-NH2] |
| 7 nM | Ac-[αAllylPro]D[tBuAla][B5(5)]D[Phe(3-COOH)][Aib]AF[Abu][PyrS2″][3Thi][Bta][(NHEt)GlnR]A-NH2 (staple 1-4, 4-11) [Ac-PL3-Asp-Npg-B5-Asp-3COOHF-Aib-Ala-Phe-Abu-PyrS2-3Thi-BztA-[NHEt]GlnR-Ala-NH2] |
| 475 nM | Ac-[αAllylPro]D[tBuAla][B5(5)]NT[Aib]AFN[PyrS2″][3Thi][Bta]V-NH2 (staple 1-4, 4-11) [Ac-PL3-Asp-Npg-B5-Asn-Thr-Aib-Ala-Phe-Asn-PyrS2-3Thi-BztA-Val-NH2] |
| 38 nM | Ac-[αAllylPro]D[tBuAla][B5(3)]D[Phe(3-COOH)][Aib]AF[Abu][PyrS2″][Phe(2-CF3)][Bta][Me2Gln]A-NH2 (staple 1-4, 4-11) [Ac-PL3-Asp-Npg-B5-Asp-3COOHF-Aib-Ala-Phe-Abu-PyrS2-2F3MeF-BztA-Me2Gln-Ala-NH2] |

target: full-length beta-Catenin (Uniprot ID P35222) (Homo sapiens (Human)) (UniProt P35222); assay: fluorescence polarization competition; full-length beta-catenin, competitor 5FAM-TCF4(10-53)
Target sequence in this assay (P35222 whole entry): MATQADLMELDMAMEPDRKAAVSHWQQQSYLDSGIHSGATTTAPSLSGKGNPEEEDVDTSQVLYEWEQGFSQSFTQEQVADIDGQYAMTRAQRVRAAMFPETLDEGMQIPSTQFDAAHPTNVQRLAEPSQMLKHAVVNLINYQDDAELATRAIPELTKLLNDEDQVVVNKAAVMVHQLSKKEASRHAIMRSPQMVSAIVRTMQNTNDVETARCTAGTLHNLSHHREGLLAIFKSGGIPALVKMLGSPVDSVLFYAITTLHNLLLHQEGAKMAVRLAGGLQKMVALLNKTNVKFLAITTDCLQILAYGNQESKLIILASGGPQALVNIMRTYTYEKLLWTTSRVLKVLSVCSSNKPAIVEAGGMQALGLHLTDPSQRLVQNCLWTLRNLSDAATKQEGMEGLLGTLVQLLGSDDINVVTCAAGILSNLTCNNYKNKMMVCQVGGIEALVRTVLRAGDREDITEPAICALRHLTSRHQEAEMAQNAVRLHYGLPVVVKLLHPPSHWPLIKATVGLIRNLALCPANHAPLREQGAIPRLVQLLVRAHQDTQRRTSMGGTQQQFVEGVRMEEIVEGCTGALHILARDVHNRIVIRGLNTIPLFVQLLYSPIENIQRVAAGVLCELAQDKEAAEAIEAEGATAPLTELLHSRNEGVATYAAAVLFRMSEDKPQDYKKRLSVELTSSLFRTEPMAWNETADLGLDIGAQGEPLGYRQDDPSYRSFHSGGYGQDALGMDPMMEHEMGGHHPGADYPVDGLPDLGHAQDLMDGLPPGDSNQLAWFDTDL

| Binder | IC50 |
| --- | --- |
| Ac-[αAllylPro]D[tBuAla][B5(4)]D[TfeGA]AAFL[PyrS2″][3Thi][Bta]F-NH2 (staple 1-4, 4-11; not fully specified) [I-1749] | 145 nM |
| Ac-[αAllylPro]D[tBuAla][B5(4)]D[TfeGA]AAFT[PyrS2″][3Thi][Bta]V-NH2 (staple 1-4, 4-11; also: -CH=CH- in each staple reduced to -CH2-CH2-) [I-1758] | 235 nM |
| Ac-[αAllylPro]D[tBuAla][B5(4)]D[TfeGA]AAFT[PyrS2″][3Thi][Bta]L-NH2 (staple 1-4, 4-11; also: -CH=CH- in each staple reduced to -CH2-CH2-) [I-1754] | 660 nM |
| Ac-[αAllylPro]D[tBuAla][B5(5)]D[TfeGA][Lys(iPr)]AFL[PyrS2″][3Thi][Bta]L-NH2 (staple 1-4, 4-11) [I-1759] | 57 nM |
| Ac-[αAllylPro]D[tBuAla][B5(4)]D[TfeGA]AAFL[PyrS2″][3Thi][Bta]V-NH2 (staple 1-4, 4-11; not fully specified) [I-1752] | 87 nM |
| Ac-[αAllylPro]D[tBuAla][B5(4)]D[TfeGA]AAFL[PyrS2″][3Thi][Bta]F-NH2 (staple 1-4, 4-11; also: -CH=CH- in each staple reduced to -CH2-CH2-) [I-1755] | 570 nM |
| Ac-[αAllylPro]D[tBuAla][B5(4)]D[TfeGA]AAFL[PyrS2″][3Thi][Bta]V-NH2 (staple 1-4, 4-11; not fully specified) [I-1751] | 104 nM |
| Ac-[αAllylPro]D[tBuAla][B5(4)]D[TfeGA]AAFL[PyrS2″][3Thi][Bta]V-NH2 (staple 1-4, 4-11; also: -CH=CH- in each staple reduced to -CH2-CH2-) [I-1757] | 449 nM |

Now from value to binder:

| IC50 | Binder |
| --- | --- |
| 802 nM | Ac-[αAllylPro]D[tBuAla][B5(4)]D[TfeGA]AAFL[PyrS2″][3Thi][Bta]L-NH2 (staple 1-4, 4-11; also: -CH=CH- in each staple reduced to -CH2-CH2-) [I-1753] |
| 104 nM | Ac-[αAllylPro]D[tBuAla][B5(5)]D[TfeGA]AAFL[PyrS2″][3Thi][Bta]F-NH2 (staple 1-4, 4-11) [I-1750] |
| 141 nM | Ac-[αAllylPro]D[tBuAla][B5(5)]D[TfeGA]AAFL[PyrS2″][3Thi][Bta]L-NH2 (staple 1-4, 4-11) [I-1748] |
| 329 nM | Ac-[αAllylPro]D[tBuAla][B5(4)]D[TfeGA]AAFT[PyrS2″][3Thi][Bta]F-NH2 (staple 1-4, 4-11; also: -CH=CH- in each staple reduced to -CH2-CH2-) [I-1756] |

From US20240116985A1, “STAPLED PEPTIDES AND METHODS THEREOF” (priority 2020, published 2024)
